B1: Hexa-His tagged full length HIV IN (enzyme)
chain: FLDGIDKAQEEHEKYHSNWRAMASDFNLPPVVAKEIVASCDKCQLKGEAMHGQVDCSPGIWQLDCTHLEGKVILVAVHVASGYIEAEVIPAETGQETAYFLLKLAGRWPVKTVHTDNGSNFTSTTVKAACWWAGIKQEFGIPYNPQSQGVIESMNKELKKIIGQVRDQAEHLKTAVQMAVFIHNFKRKGGIGGYSAGERIVDIIATDIQTKELQKQITKIQNFRVYYRDSRDPVWKGPAKLLWKGEGAVVIQDNSDIKVVPRRKAKIIRDYGKQMAGDDCVASRQDED
notes: HIV-1 integrase, the cut product of the Gag-Pol polyprotein; also called His6-tagged IN; HIV integrase; source: E. coli BL21(DE3), purified (nickel HiTrap column)

Key:
[1] = biological target: B1; assay: AlphaScreen or HTRF; His6-tagged IN (30 nM) on Ni-chelate donor beads, Flag-tagged LEDGF (30 nM) on anti-FLAG acceptor beads; 25 mM Tris-Cl pH 7.5, 25 mM NaCl, 5 mM MnCl2, 5 mM MgCl2, 5 mM BME, 50 ug/ml BSA, 0.05% Tween-20; 1 hour at 30°C; competition with untagged LEDGF; conditions: both partners purified
[2] = biological target: T1, FLAG epitope tagged LEDGF protein (UniProt O75475 1-530); assay: as above; conditions: both partners purified
T1 construct: lens epithelium derived growth factor (LEDGF/p75), coded by the PSIP1 gene; also called FLAG-LEDGF; Flag-tagged LEDGF; source: E. coli BL21(DE3), purified (heparin column, SP column); not shown: FLAG, N-terminal, kept

Binder	percent reduction of the AlphaScreen signal at a 1:1 molar ratio with FLAG-LEDGF [1] [%]	binding result [2]
Untagged LEDGF (natural protein, lens epithelium derived growth factor (LEDGF/p75), coded by the PSIP1 gene; source: E. coli, purified as described for FLAG-LEDGF) not shown	50	
B1		binds

From publication PMC3393750, “Small Molecule Inhibitors of the LEDGF Site of Human Immunodeficiency Virus Integrase Identified by Fragment Screening and Structure Based Design” (PLoS ONE, 2012)
